Reference: paper PMC6264593

Tests used:
Test in all cases: SPR; Fcγ receptor affinities (KD) by Surface Plasma Resonance; mAb up to 6.4 µM
[1] = target: hFcγRI (human) (UniProt P12314)
[2] = target: hFcγRIIIa (human) (UniProt P08637)
[3] = target: hFcγRIIa (human) (UniProt P12318)
[4] = target: hFcγRIIb (human) (UniProt P31994)
[5] = target: mFcγRIII (mouse) (UniProt P08508)
[6] = target: mFcγRIIb (mouse) (UniProt P08101)
[7] = target: mFcγRIV (mouse)
mFcγRIV (mouse), sequence (A0A0B4J1G0 21-249): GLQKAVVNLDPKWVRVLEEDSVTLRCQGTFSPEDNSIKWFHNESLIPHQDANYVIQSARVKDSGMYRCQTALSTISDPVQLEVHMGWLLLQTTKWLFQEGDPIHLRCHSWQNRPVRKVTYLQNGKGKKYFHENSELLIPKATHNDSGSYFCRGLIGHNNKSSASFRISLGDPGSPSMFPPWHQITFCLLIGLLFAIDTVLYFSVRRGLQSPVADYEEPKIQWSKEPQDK

hFcγRI (human), sequence (P12314 16-374): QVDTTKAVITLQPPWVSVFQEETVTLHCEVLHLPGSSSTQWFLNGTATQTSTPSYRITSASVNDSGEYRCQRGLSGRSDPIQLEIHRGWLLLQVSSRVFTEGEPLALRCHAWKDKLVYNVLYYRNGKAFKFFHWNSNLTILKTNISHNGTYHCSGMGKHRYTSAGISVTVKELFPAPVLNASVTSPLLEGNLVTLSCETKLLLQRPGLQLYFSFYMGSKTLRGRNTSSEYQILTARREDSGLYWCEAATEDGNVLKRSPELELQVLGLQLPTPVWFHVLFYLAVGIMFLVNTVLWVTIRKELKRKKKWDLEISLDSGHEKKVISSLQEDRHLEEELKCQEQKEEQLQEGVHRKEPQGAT
hFcγRIIa (human), sequence (P12318 34-317): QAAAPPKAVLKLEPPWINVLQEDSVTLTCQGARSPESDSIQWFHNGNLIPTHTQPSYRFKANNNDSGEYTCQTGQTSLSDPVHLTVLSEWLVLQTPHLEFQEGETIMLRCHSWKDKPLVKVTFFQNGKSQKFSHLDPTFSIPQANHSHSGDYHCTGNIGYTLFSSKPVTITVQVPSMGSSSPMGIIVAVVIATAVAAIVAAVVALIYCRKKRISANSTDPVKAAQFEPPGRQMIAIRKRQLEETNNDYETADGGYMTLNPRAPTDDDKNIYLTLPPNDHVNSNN
mFcγRIIb (mouse), sequence (P08101 30-330): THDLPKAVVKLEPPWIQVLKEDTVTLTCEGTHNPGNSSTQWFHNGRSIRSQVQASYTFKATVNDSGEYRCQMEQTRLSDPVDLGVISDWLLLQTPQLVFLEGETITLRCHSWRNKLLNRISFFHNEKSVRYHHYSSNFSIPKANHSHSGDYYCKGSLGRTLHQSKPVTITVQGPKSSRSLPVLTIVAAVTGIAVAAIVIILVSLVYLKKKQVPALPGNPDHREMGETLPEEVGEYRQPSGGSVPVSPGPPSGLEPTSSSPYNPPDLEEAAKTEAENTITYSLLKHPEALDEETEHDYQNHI
hFcγRIIb (human), sequence (P31994 43-310): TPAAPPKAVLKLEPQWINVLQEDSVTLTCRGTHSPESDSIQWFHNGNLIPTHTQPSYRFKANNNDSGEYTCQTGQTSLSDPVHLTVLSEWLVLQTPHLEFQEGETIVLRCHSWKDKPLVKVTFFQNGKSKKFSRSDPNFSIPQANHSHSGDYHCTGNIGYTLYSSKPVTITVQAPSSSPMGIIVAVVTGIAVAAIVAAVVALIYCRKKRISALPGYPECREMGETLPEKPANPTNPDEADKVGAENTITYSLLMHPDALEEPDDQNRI
mFcγRIII (mouse), sequence (P08508 31-261): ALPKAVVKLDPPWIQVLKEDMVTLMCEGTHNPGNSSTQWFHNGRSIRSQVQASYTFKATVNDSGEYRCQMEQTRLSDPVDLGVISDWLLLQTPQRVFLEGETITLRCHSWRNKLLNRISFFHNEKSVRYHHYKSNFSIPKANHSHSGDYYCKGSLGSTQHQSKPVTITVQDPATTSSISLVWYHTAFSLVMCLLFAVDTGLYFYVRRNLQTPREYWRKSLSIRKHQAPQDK
hFcγRIIIa (human), sequence (P08637 17-254): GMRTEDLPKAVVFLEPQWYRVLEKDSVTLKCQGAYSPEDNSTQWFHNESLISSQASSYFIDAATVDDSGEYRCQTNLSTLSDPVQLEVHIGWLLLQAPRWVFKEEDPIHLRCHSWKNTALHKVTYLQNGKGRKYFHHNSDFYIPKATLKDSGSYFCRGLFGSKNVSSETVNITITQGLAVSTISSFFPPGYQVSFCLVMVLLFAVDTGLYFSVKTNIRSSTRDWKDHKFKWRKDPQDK

Row | Substance | Kd [1] | Kd [2] | Kd [3] | Kd [4] | Kd [5] | Kd [6] | Kd [7]
1 | 3D6-huIgG1 (antibody) | 0.86 nM | 472 nM | 794 nM | 2060 nM | – | – | –
2 | 3D6mIgG2b (antibody) | – | – | – | – | 119 nM | 456 nM | 22 nM
3 | SAR228810 (antibody) | 244 nM | – | 2640 nM | 1830 nM | – | – | –
4 | SAR255952 (antibody) | – | – | – | – | – | > 4500 nM | –
